Results published in publication PMC4260256, “A novel serine hydroxymethyltransferase from Arthrobacter nicotianae: characterization and improving catalytic efficiency by rational design” (BMC Biotechnology, 2014).

System: NC(C(=O)O)C(O)c1ccccc1
Assay: purified protein
Settings: pH 7.8; 40.0 °C

In the case of AnSHMT (Glutamicibacter nicotianae), the Km is reported as 57.86 ± 0.07 mM and the kcat/Km is reported as 27.7 M⁻¹ s⁻¹.
